Test results from PMC10623405, “CsTT8 regulates anthocyanin accumulation in blood orange through alternative splicing transcription” (Horticulture Research, 2023).

Experiments:
[1] = target: CsTT8 (TT8 with the full-length open reading frame) from blood orange 'Tarocco' (Citrus sinensis cv. 'Tarocco' (blood orange))
[2] = target: Δ15-TT8 (alternative splicing transcript of CsTT8 with the fourth exon skipped) (Citrus sinensis cv. 'Tarocco' (blood orange))
[3] = target: CsTT8 (TT8 with the full-length open reading frame) from blood orange 'Tarocco' (Citrus sinensis cv. 'Tarocco' (blood …, UniProt A0A0U4H1K1 1-694)); test: cell-based or functional assay
CsTT8 (TT8 with the full-length open reading frame) from blood orange 'Tarocco' (Citrus sinensis cv. 'Tarocco', sequence (A0A0U4H1K1 entry or part of it): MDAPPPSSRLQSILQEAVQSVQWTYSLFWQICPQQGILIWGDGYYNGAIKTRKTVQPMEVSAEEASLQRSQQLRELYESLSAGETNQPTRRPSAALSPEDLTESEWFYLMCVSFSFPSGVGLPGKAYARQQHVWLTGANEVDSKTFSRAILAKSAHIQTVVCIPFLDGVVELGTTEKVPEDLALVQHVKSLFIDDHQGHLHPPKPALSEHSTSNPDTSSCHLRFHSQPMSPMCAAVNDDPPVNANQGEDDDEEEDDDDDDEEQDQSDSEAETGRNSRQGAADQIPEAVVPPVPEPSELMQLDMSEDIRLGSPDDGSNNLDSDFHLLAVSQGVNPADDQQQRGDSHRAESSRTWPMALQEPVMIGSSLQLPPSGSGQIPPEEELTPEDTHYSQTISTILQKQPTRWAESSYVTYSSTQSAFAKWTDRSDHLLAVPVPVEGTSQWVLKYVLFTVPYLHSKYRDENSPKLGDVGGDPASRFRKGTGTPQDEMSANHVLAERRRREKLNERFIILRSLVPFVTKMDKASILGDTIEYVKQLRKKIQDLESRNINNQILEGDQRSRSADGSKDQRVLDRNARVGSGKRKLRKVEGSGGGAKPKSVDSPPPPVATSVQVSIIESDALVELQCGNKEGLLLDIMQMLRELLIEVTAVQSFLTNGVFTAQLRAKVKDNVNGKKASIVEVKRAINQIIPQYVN

Δ15-TT8 (alternative splicing transcript of CsTT8 with the fourth exon skipped) (Citrus sinensis cv. 'Tarocco' (blood orange)), sequence (main, as listed by the source mutant): as the sequence (A0A0U4H1K1 entry or part of it) above

| dual luciferase reporter with the PH8 promoter in N. benthamiana leaves, effectors TT8 and MYB5, LUC/REN ratio [1] [LUC/REN] | dual luciferase reporter with the F3′H promoter in N. benthamiana leaves, effectors Δ15-TT8 and RUBY1, LUC/REN ratio [2] [LUC/REN] | dual luciferase reporter with the F3′H promoter in N. benthamiana leaves, effectors TT8 and RUBY1, LUC/REN ratio [3] [LUC/REN] | Molecule |
| --- | --- | --- | --- |
| 0.34 |  |  | MYB5 (an MYB-type transcription factor) from sweet orange (natural protein) |
|  | 0.042 | 0.099 | RUBY1 (MYB-type transcription factor) from blood orange 'Tarocco' (natural protein, UniProt H6U1F1 1-262, looked up) MADSLGVRKGAWTGEEDDLLRKCIEKYGEAKWHQVPLRAGLHRCRKSCRLRWLNYLNPNIKRGEFAADEVDLILRLHKLLGNRWSLIVGRLPGRTANDVKNFWNTHLRKKVDKCCKNNKEMKAKAEKVEKINIIKPQPRTFAKNSQWLKGKGMTSNNLQLGDYNLGKQSTPSDHHHHHQQQQENETESVWWESFLFGDELDQQGISSSLSRPEEESTTANIFAEKSPVVTKVTENRVIEAGQSCPTDDFAFDAELWDLLNAK |
